Tests used:
Assay in all cases: FP
SHANK3 PDZ = molecular target: T1, SHANK3 PDZ (UniProt Q9BYB0)
T1 chain: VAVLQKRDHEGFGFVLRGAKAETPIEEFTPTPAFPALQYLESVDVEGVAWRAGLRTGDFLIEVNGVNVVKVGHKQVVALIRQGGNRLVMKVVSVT

PSD-95 PDZ2 = molecular target: T2, PSD-95 PDZ2 (UniProt P78352)
T2 chain: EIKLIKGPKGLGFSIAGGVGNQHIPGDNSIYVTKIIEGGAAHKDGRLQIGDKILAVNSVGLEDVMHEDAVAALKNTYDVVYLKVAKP

PSD-95 PDZ3 = molecular target: T3, PSD-95 PDZ3 (UniProt P78352)
T3 chain: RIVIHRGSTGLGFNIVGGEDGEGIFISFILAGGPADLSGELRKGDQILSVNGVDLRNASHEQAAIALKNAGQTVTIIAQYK

SHANK2 PDZ = molecular target: T4, SHANK2 PDZ (UniProt Q9UPX8)
T4 chain: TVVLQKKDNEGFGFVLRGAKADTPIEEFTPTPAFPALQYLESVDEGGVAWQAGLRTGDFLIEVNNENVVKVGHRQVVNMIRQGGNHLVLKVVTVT

SHANK1 PDZ = molecular target: T5, SHANK1 PDZ (UniProt Q9Y566)
T5 chain: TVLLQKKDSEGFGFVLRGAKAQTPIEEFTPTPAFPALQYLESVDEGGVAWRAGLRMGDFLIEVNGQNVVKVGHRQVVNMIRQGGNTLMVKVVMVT

B1: CDKL5-1 941-960 (peptide)
chain: YNRTNRSRMPNLNDLKETAL
- Kd (SHANK3 PDZ): 8.6 µM
- Kd (PSD-95 PDZ2): 31.3 µM
- Kd (PSD-95 PDZ3): 40.7 µM
- Kd (SHANK2 PDZ): 5.2 µM
- Kd (SHANK1 PDZ): 7.6 µM

From article PMC13787487 (2026)
